K0.5 and kcat data for one protein are collected here from PMC6491607, “4-Coumarate 3-hydroxylase in the lignin biosynthesis pathway is a cytosolic ascorbate peroxidase” (Nature Communications, 2019).

Substrate in data set [1]: N[C@@H](Cc1ccc(O)cc1)C(=O)O
Briefly: HPLC of product (L-DOPA), Hill fit. The class given is biochemical, Arabidopsis thaliana. Conditions: H2O2 co-substrate, ascorbate 4 mM, sodium phosphate pH 6, 30 °C, hemin reconstituted.

Substrate in data set [2]: O=C1O[C@H]([C@@H](O)CO)C(O)=C1O
Nature of the data set: purified protein. Particulars: H2O2 co-substrate, sodium phosphate pH 6, hemin reconstituted.

Substrate in data set [3]: O=C(O)/C=C/c1ccc(O)cc1
Briefly: HPLC of product, Hill fit. Conditions: H2O2 co-substrate, ascorbate 4 mM, sodium phosphate pH 6, 30 °C, hemin reconstituted. In kind it is biochemical, Arabidopsis thaliana.

B1: Arabidopsis C3H (4-coumarate 3-hydroxylase; cytosolic ascorbate peroxidase APX1) (Arabidopsis thaliana) (protein)
chain: MTKNYPTVSEDYKKAVEKCRRKLRGLIAEKNCAPIMVRLAWHSAGTFDCQSRTGGPFGTMRFDAEQAHGANSGIHIALRLLDPIREQFPTISFADFHQLAGVVAVEVTGGPDIPFHPGREDKPQPPPEGRLPDATKGCDHLRDVFAKQMGLSDKDIVALSGAHTLGRCHKDRSGFEGAWTSNPLIFDNSYFKELLSGEKEGLLQLVSDKALLDDPVFRPLVEKYAADEDAFFADYAEAHMKLSELGFADA
notes: full-length cDNA in pDEST17, N-terminal 6xHis tag kept, E. coli Rosetta, Ni-NTA purified, hemin reconstituted
Turning to B1, the values for the K0.5 in data set [1], in data set [2] and in data set [3] were 653 ± 127 µM, 299 ± 63 µM and 708 ± 154 µM, respectively. For the same protein, the kcat in data set [1] was 599 s–1; in data set [2] it was 181 s–1; in data set [3] it was 492 s–1.
